The results in this text go back to PMC4344510.

Where two headings read alike, the source gives them in different places.

The target of one data set is Hfq65 R16A/R17A (Escherichia coli, UniProt P0A6X3 1-65, R16A;R17A). The experiment in a line: NMR.
The target of a further data set is Hfq F42S (Escherichia coli, UniProt P0A6X3 1-102, F42S). Put plainly: fluorescence polarization. On the technique in general: In fluorescence polarisation assays a small probe gives low polarisation when free and higher when bound to something large.
For data set [1], the target named is T1, Hfq N48A (Escherichia coli, UniProt P0A6X3 1-102, N48A). Put plainly: fluorescence polarization.
Data set [2] concerns the target T2, Hfq WT (Escherichia coli, UniProt P0A6X3 1-102). Put plainly: fluorescence polarization.
The target of data set [3] is T3, Hfq N28A (Escherichia coli, UniProt P0A6X3 1-102, N28A). The experiment in a line: fluorescence polarization.
Data set [4] addresses T1, Hfq N48A. Put plainly: fluorescence polarization. The source holds these as a separate data set.
In data set [5] the target is T3, Hfq N28A. The experiment in a line: fluorescence polarization. This is another data set of the same source.
The target of data set [6] is T2, Hfq WT. The experiment in a line: fluorescence polarization. This is another data set of the same source.
Data set [7] addresses T3, Hfq N28A. Put plainly: fluorescence polarization. The source holds these as a separate data set.

Regarding AUAACUA (ssRNA) [Aus], in the data set with Hfq65 R16A/R17A, the binding result is listed as “binds”.

With AACUAAA (ssRNA) [Ads], in the data set with Hfq65 R16A/R17A, the binding result is listed as “binds”.

As for AUAACUA (ssRNA) [Aus (FAM)], the binding result with Hfq F42S is “binds”. In addition, the Kd (commonly the equilibrium constant for the complex coming apart) with Hfq N48A [1] was 16.8 nM; with Hfq WT [2], 22 nM. In the data set with Hfq N28A [3], the binding signal is approximately 6 fold weaker than WT.

In the data set with Hfq WT [2], AAUAACUAAA (ssRNA) [OxyS 65-74 10-nt] displayed a dissociation constant (Kd) of 13 nM.

Turning to AAAAAAA (ssRNA) [A7 (FAM)], the binding signal was approximately 27 fold weaker than WT in the data set with Hfq N48A [4] and approximately 40 fold weaker than WT with Hfq N28A [5].

Regarding AACUAAA (ssRNA) [Ads (FAM)], the binding result with Hfq F42S and with Hfq N28A [7] was “binds” in each case. Also, the dissociation constant (Kd) in the data set with Hfq N48A [1] came out at 92.8 nM; with Hfq WT [6], 1490 nM.
